Laboratory results taken from patent US20260274955A1 (JANUX THERAPEUTICS, published 2026).

How the values were obtained:
[1] = biological target: T1, Anti-CD28 Fab (SEQ ID NOs: 202, 203); test: phage ELISA, Fab on plate;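 further: crude clonal phage supernatants added to wells pretreated with blocking buffer with or without CD28 antigen, then bound phage read out via HRP-linked anti-M13 antibody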
T1 construct: biotinylated and captured on neutravidin coated plates in the phage ELISA
T1 sequence (VH, as listed by the source, chain 1 of 2): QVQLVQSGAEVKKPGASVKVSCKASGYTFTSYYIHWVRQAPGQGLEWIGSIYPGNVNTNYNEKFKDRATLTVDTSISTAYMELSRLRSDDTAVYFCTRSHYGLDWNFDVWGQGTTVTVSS
T1 sequence (VL, as listed by the source, chain 2 of 2): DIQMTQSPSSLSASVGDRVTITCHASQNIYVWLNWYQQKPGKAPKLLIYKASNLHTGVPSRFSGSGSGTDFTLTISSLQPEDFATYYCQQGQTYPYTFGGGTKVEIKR
Protocol: (§1) After panning, phage infected bacteria were plated out and colonies picked into 96 well blocks. Clonal phage was then amplified and separated from bacterial cells via centrifugation.
(§2) Clonal phage were harvested as crude supernatants and screened via standard ELISAs. […] Prior to the addition of clonal phage, wells were incubated with blocking buffer and CD28 antigen or blocking buffer alone. Without washing or aspirating, clonal phage supernatants were then added to the wells and incubated for a short time. Wells were then washed followed by detection of bound phage using a horse radish conjugated anti-M13 antibody. Clonal phage of interest were then sent for sequence analysis.

[2] = biological target: T1, Anti-CD28 Fab (SEQ ID NOs: 202, 203); test: phage ELISA, Fab on plate, CD28 antigen as competitor
Protocol: as §1, §2

[3] = biological target: Anti-CD28 Fab (SEQ ID NOs: 202, 203); test: phage binding ELISA on captured Fab;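 further: clonal phage supernatants added briefly to wells pre-incubated with CD28 antigen or with blocking buffer only, then washed, bound phage read by ELISA using HRP-coupled anti-M13 antibody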
Target sequence in this assay (VH, as listed by the source, chain 1 of 2): as the sequence (VH, as listed by the source, chain 1 of 2) above
Target sequence in this assay (VL, as listed by the source, chain 2 of 2): as the sequence (VL, as listed by the source, chain 2 of 2) above
Protocol: Clonal phage were harvested as crude supernatants and screened via standard ELISAs. […] Prior to the addition of clonal phage, wells were incubated with blocking buffer and CD28 antigen or blocking buffer alone. Without washing or aspirating, clonal phage supernatants were then added to the wells and incubated for a short time. Wells were then washed followed by detection of bound phage using a horse radish conjugated anti-M13 antibody.

Binder	Anti-CD28 Fab (SEQ ID NOs: 202, 203) signal [1]	Anti-CD28 Fab signal in the presence of CD28 [2]	Anti-CD28 Fab signal [3]
YCDGHSWIYMVKCL [Phage-717]	1.16	0.06	–
FMCLPQNPHPLCFK [Phage-3]	–	–	0.84
YCEGHSPEYMAKCL [Phage-74]	–	–	2.35
YCEGHLPQYMAKCL [Phage-81]	–	–	2.34
YCDGHLPEYMSKCL [Phage-75]	–	–	2.35
YCDGHLPQYMAKCL [Phage-76]	–	–	2.35
YCEGHLPEYMLKCL [Phage-87]	–	–	2.32
YCAGHLPEYMEKCL [Phage-128]	–	–	2.24
YCDGHSQEYMMKCL [Phage-111]	–	–	2.28
YCEGHAWEYMAKCL [Phage-129]	–	–	2.24
YCDGHLPMYMQKCL [Phage-83]	–	–	2.33
YCDGHSQEYMAKCL [Phage-131]	–	–	2.24
YCDGHLPMYMMKCL [Phage-109]	–	–	2.28
YCDGHLPIYMSKCL [Phage-84]	–	–	2.32
YCEGHAAEYMEKCL [Phage-104]	–	–	2.3
YCDGHVPEYMAKCL [Phage-108]	–	–	2.29
YCQGHAPEYMAKCL [Phage-110]	–	–	2.28
YCSGHLPQYMQKCL [Phage-112]	–	–	2.28
YCQGHLPEYMNKCL [Phage-130]	–	–	2.24
YCDGHLPQYMWKCL [Phage-107]	–	–	2.29
YCDGHSPLYMWKCL [Phage-82]	–	–	2.34
YCDGHLPLYLAKCL [Phage-133]	–	–	2.23

Binder	Anti-CD28 Fab (SEQ ID NOs: 202, 203) signal [1]	Anti-CD28 Fab signal in the presence of CD28 [2]	Anti-CD28 Fab signal [3]
YCDGHSSEYMAKCL [Phage-113]	–	–	2.28
YCDGHLPEYMMKCL [Phage-78]	–	–	2.34
YCDGHAKVYIWKCL [Phage-745]	1.06	0.08	–
PDCQTILFKPWCVR [Phage-4]	–	–	2.09
PDCHTILFKPWCVR [Phage-16]	–	–	1
YCAGHAWQYINKCL [Phage-13]	–	–	0.64
YCEGHSEMYMSKCL [Phage-741]	1.07	0.09	–
YCEGHIPAYMAKCL [Phage-746]	1.06	0.08	–
YWYCSPSIVRCVLV [Phage-15]	–	–	1.51
DCPWLSGFSRPLLC [Phage-19]	–	–	1.27
YWSCFQIPFTCFYF [Phage-1]	–	–	1.44
WCWDYREWVPMTCP [Phage-8]	–	–	2.3
WCWYYREWVPMTCP [Phage-14]	–	–	1.85
YCAGHSPINIGKCL [Phage-10]	–	–	1.49
YCDGHLSVYMSKCL [Phage-718]	1.15	0.07	–
YCDGHANAYIWKCL [Phage-742]	1.07	0.09	–
DCWWMFESYPGRCI [Phage-12]	–	–	1.65
YCAGHSHEYLAKCE [Phage-24]	–	–	0.86
YCDGHSPMYILKCL [Phage-79]	–	–	2.34
YCAGHTEEHYVKCM [Phage-22]	–	–	0.62
YCEGHLWEYLAKCL [Phage-734]	1.1	0.05	–
YCDGHSFHYMAKCL [Phage-740]	1.08	0.06	–

Binder	Anti-CD28 Fab (SEQ ID NOs: 202, 203) signal [1]	Anti-CD28 Fab signal in the presence of CD28 [2]	Anti-CD28 Fab signal [3]
WCWDYKLWVPTQCP [Phage-7]	–	–	2.27
YCMGHSHEHIWKCL [Phage-23]	–	–	0.87
WCWDYKLWVPMTCP [Phage-11]	–	–	2.51
YCVGHLPEYMLECM [Phage-739]	1.08	0.07	–
YCEGHLPQYMSKCL [Phage-719]	1.15	0.09	–
YCAGHMPQYEVKCL [Phage-21]	–	–	0.22
YCDGHAMEYMEKCL [Phage-733]	1.11	0.08	–
GCQYPWAFDAMSCP [Phage-6]	–	–	2.38
WECLKYTEANACTY [Phage-2]	–	–	1.55
ACDTYFAGMINECF [Phage-5]	–	–	0.92
YCEGHAQEYMAKCL [Phage-744]	1.06	0.08	–
YCEGHIPMYMLKCM [Phage-743]	1.06	0.09	–
SCAAGASYAWPYCL [Phage-18]	–	–	1.49
WICDKSGSIMLCRA [Phage-17]	–	–	0.91
YCEGHMGEYMLKCL [Phage-735]	1.1	0.06	–
ECHWSMWAVGHACF [Phage-9]	–	–	1.77
YCAGMSTIQLWLKC [Phage-20]	–	–	2.16
YCAGHAEEYMLKCL [Phage-737]	1.09	0.07	–
YCEGHLWEYMKKCL [Phage-748]	1.06	0.07	–
YCDGHAPIYMQKCL [Phage-747]	1.06	0.06	–
